Data published in patent US20260109776A1 (Amgen, published 2026).

How the values were obtained:
huCD40(1-193) = biological target: T1, huCD40(1-193) (human, UniProt P25942 21-193); assay: Octet
T1 construct: also called soluble human CD40
Description: (§1) A panel of mesothelin×CD40 bispecific antibodies were generated in the IgG-scFv format (Table 13) and evaluated for binding to soluble forms of human and cynomolgus monkey CD40 and human and cynomolgus monkey mesothelin using the Octet assay (Table 14). Association rate (Kon), disassociation rate (Kdis), and equilibrium binding constant (KD) were calculated. […] These bispecific antibodies were next evaluated for their ability to induce mesothelin-dependent activation of human B cells. CHO cells expressing human mesothelin were seeded into a 96 well plate. The next day varying concentrations of the mesothelin×CD40 IgG-scFv antibodies were added to the wells along with purified human B cells and the plates were incubated for an additional 48 hours. Upregulation of CD86, a marker of CD40-mediated B cell activation, was quantified on B cells by flow cytometry.

cynoCD40(1-193) = biological target: T2, cynoCD40(1-193) (cynomolgus monkey, UniProt P25942 21-193 (human entry)); assay: Octet
T2 construct: also called soluble cynomolgus monkey CD40
T2 chain: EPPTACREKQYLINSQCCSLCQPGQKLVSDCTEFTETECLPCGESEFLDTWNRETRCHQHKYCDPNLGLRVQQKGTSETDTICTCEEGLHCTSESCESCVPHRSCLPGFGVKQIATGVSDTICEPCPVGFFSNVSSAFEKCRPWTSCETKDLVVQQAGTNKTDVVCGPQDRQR
Description: as §1

huMSLN(296-598) = biological target: T3, huMSLN(296-598) (human, UniProt Q13421 296-598); assay: Octet
T3 construct: also called soluble human mesothelin
Description: as §1

cynoMSLN(296-598) = biological target: T4, cynoMSLN(296-598) (cynomolgus monkey); assay: Octet
T4 chain: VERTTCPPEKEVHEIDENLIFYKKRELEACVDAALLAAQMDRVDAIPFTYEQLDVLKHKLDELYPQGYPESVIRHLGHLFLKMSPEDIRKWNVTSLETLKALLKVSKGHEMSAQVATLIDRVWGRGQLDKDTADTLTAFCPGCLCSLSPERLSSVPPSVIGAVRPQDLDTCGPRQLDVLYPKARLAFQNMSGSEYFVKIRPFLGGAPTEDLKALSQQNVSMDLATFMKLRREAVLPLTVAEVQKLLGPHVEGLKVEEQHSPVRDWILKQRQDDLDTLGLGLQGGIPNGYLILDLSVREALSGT
Description: as §1

human CD40 = human CD40 (human, UniProt P25942 21-277); assay: cell-based or functional assay

T3 sequence (Q13421 other isoform, or with tags, fused parts or gaps): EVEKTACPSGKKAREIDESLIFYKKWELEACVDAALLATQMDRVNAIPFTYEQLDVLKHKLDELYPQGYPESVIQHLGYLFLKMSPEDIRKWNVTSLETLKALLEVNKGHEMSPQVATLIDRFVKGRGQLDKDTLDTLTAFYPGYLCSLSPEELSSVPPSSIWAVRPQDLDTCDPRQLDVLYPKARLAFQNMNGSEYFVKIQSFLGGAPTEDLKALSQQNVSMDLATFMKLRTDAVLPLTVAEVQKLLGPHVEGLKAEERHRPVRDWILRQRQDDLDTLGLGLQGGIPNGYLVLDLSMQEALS

B1: 6032-2 (bispecific antibody)
heavy: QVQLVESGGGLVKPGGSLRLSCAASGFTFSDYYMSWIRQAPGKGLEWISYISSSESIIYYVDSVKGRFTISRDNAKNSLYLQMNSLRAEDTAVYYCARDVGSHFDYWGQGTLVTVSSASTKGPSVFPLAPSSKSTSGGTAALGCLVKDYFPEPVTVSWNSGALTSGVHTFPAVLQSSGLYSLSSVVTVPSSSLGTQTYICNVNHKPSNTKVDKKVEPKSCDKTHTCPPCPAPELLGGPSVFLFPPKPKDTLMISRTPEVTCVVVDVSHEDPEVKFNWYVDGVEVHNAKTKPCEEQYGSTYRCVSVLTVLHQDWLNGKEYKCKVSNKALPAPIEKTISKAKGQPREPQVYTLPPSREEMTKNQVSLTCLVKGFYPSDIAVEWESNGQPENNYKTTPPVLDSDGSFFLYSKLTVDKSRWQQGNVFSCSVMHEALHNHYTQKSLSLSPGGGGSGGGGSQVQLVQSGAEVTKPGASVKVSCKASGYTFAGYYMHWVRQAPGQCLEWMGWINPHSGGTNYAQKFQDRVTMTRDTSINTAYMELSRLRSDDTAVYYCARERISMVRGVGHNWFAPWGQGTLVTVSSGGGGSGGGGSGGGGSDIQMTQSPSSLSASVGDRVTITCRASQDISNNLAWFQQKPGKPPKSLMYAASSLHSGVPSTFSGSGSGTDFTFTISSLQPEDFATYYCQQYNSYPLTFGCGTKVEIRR
light: DIQMTQSPSSVSASVGDRVTITCRASQDISRWLAWYQQKPGKAPKLLISAASRLQSGVPSRFSGSGSGTDFTLTISSLQPEDFAIYYCQQAKSFPRTFGQGTKVEIKRTVAAPSVFIFPPSDEQLKSGTASVVCLLNNFYPREAKVQWKVDNALQSGNSQESVTEQDSKDSTYSLSSTLTLSKADYEKHKVYACEVTHQGLSSPVTKSFNRGEC
notes: IgG-scFv: IgG (MSLN) 6F4, scFv (CD40) 29H10
Kd (huCD40(1-193)): 2 nM
koff (huCD40(1-193)): 0.000407 s⁻¹
kon (huCD40(1-193)): 204000 M⁻¹ s⁻¹
Kd (cynoCD40(1-193)): 1.7 nM
koff (cynoCD40(1-193)): 0.000407 s⁻¹
kon (cynoCD40(1-193)): 238000 M⁻¹ s⁻¹
Kd (huMSLN(296-598)): 0.4 nM
koff (huMSLN(296-598)): 0.000306 s⁻¹
kon (huMSLN(296-598)): 692000 M⁻¹ s⁻¹
Kd (cynoMSLN(296-598)): 5.8 nM
koff (cynoMSLN(296-598)): 0.00199 s⁻¹
kon (cynoMSLN(296-598)): 345000 M⁻¹ s⁻¹
EC50 (nM), CD86 upregulation on human B cells with huMSLN-CHO cells (human CD40): 0.00935 nM
